Test results: US20180155451A1 (published 2018)

B1: GpH7-B3 variant K326_07I/GpL16-k0 (antibody, human IgG1, kappa)
heavy: not shown
light: DIVMTQSPLSLPVTPGEPASISCQASESLVHSNRNTYLHWYLQKPGQSPQLLIYKVSNRFSGVPDRFSGSGSGTDFTLKISRVEAEDVGVYYCSQNTHVPPTFGQGTKVEIERTVAAPSVFIFPPSDEQLKSGTASVVCLLNNFYPREAKVQWKVDNALQSGNSQESVTEQDSKDSTYSLSSTLTLSKADYEKHKVYACEVTHQGLSSPVTKSFNRGEC
notes: homodimerized; mutation in both H chains; also called Ho Ab K326_07I
B2: GpH7-B3 variant K326_03V/GpL16-k0 (antibody, human IgG1, kappa)
heavy: not shown
light: B1 light
notes: homodimerized; mutation in both H chains; also called Ho Ab K326_03V
B3: GpH7-B3 variant K326_10E/GpL16-k0 (antibody, human IgG1, kappa)
heavy: not shown
light: B1 light
notes: homodimerized; mutation in both H chains; also called Ho Ab K326_10E
B4: GpH7-B3 variant I332_06M/GpL16-k0 (antibody, human IgG1, kappa)
heavy: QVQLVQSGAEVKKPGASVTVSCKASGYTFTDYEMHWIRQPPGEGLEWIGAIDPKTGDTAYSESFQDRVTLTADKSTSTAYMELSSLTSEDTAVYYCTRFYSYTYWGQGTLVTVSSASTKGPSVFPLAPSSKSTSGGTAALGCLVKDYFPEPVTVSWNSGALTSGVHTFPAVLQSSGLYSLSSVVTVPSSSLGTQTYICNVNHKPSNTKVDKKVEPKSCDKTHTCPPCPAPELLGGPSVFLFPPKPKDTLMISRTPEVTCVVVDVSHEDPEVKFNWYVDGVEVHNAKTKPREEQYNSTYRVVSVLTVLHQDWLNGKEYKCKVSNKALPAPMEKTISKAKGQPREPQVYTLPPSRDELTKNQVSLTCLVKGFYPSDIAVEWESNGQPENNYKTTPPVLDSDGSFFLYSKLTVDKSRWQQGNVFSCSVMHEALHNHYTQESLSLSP
light: B1 light
notes: homodimerized; mutation in both H chains; also called Ho Ab I332_06M
B5: GpH7-B3 variant G236_10E/GpL16-k0 (antibody, human IgG1, kappa)
heavy: not shown
light: B1 light
notes: homodimerized; mutation in both H chains; also called Ho Ab G236_10E
B6: GpH7-B3 variant P238_15Y/GpL16-k0 (antibody, human IgG1, kappa)
heavy: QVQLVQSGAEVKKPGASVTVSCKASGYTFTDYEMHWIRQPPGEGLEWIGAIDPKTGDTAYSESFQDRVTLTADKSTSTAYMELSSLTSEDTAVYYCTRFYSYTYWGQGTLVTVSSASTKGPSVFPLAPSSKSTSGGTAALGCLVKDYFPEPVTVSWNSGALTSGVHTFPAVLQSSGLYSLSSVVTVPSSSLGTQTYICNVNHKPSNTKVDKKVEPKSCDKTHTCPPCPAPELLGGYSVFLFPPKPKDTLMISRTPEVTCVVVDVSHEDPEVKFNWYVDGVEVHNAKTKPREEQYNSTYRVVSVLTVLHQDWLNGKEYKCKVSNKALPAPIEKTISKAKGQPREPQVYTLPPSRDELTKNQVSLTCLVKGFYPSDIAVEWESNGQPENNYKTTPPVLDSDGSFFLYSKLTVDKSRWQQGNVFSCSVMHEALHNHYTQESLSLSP
light: B1 light
notes: homodimerized; mutation in both H chains; also called Ho Ab P238_15Y
B7: GpH7-B3 variant H268_13S/GpL16-k0 (antibody, human IgG1, kappa)
heavy: not shown
light: B1 light
notes: homodimerized; mutation in both H chains; also called Ho Ab H268_13S
B8: GpH7-B3 variant S239_03V/GpL16-k0 (antibody, human IgG1, kappa)
heavy: not shown
light: B1 light
notes: homodimerized; mutation in both H chains; also called Ho Ab S239_03V
B9: GpH7-B3 variant S267_06M/GpL16-k0 (antibody, human IgG1, kappa)
heavy: not shown
light: B1 light
notes: homodimerized; mutation in both H chains; also called Ho Ab S267_06M
B10: GpH7-B3 variant K334_05P/GpL16-k0 (antibody, human IgG1, kappa)
heavy: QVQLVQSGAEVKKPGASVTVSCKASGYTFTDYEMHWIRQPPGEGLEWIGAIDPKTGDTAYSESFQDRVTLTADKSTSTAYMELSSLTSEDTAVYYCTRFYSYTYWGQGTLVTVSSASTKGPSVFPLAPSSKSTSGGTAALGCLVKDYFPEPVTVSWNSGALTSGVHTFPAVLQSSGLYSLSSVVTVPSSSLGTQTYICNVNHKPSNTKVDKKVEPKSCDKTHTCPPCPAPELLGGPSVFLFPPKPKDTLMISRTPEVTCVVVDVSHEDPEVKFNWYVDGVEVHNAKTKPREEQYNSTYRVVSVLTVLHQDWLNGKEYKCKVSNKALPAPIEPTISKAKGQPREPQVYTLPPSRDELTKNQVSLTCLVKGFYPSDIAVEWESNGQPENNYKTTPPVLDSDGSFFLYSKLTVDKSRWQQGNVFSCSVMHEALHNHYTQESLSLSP
light: B1 light
notes: homodimerized; mutation in both H chains; also called Ho Ab K334_05P
B11: GpH7-B3 variant G236_09D/GpL16-k0 (antibody, human IgG1, kappa)
heavy: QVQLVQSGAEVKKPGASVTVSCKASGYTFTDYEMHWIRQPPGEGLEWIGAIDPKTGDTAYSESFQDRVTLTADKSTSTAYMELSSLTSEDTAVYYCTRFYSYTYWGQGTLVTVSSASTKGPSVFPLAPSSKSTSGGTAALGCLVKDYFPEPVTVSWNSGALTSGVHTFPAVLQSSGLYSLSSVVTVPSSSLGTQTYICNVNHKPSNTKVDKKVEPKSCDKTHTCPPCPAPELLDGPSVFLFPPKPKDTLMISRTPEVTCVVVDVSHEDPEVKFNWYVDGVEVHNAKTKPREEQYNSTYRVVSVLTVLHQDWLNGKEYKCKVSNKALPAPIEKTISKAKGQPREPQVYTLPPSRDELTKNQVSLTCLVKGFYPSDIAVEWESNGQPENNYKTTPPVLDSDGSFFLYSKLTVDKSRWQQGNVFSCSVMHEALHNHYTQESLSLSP
light: B1 light
notes: homodimerized; mutation in both H chains; also called Ho Ab G236_09D
B12: GpH7-B3 variant K326_09D/GpL16-k0 (antibody, human IgG1, kappa)
heavy: not shown
light: B1 light
notes: homodimerized; mutation in both H chains; also called Ho Ab K326_09D
B13: GpH7-B3 variant P238_04F/GpL16-k0 (antibody, human IgG1, kappa)
heavy: not shown
light: B1 light
notes: homodimerized; mutation in both H chains; also called Ho Ab P238_04F
B14: GpH7-B3 variant I332_10E/GpL16-k0 (antibody, human IgG1, kappa)
heavy: not shown
light: B1 light
notes: homodimerized; mutation in both H chains; also called Ho Ab I332_10E
B15: GpH7-B3 variant K334_07I/GpL16-k0 (antibody, human IgG1, kappa)
heavy: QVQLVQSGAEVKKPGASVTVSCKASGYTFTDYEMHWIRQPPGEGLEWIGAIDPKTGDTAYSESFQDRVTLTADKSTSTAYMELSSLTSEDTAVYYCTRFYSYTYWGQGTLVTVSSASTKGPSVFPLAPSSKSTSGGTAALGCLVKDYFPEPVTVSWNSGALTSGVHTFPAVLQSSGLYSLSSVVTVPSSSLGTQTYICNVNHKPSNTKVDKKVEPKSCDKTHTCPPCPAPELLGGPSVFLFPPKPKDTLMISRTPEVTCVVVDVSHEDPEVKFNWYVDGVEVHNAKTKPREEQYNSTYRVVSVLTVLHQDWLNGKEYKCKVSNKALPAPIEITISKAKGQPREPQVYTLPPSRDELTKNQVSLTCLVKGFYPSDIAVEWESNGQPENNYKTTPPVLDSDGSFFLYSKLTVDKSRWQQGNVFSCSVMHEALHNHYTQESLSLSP
light: B1 light
notes: homodimerized; mutation in both H chains; also called Ho Ab K334_07I
B16: GpH7-B3 variant G237_20W/GpL16-k0 (antibody, human IgG1, kappa)
heavy: not shown
light: B1 light
notes: homodimerized; mutation in both H chains; also called Ho Ab G237_20W
B17: GpH7-B3 variant K334_04F/GpL16-k0 (antibody, human IgG1, kappa)
heavy: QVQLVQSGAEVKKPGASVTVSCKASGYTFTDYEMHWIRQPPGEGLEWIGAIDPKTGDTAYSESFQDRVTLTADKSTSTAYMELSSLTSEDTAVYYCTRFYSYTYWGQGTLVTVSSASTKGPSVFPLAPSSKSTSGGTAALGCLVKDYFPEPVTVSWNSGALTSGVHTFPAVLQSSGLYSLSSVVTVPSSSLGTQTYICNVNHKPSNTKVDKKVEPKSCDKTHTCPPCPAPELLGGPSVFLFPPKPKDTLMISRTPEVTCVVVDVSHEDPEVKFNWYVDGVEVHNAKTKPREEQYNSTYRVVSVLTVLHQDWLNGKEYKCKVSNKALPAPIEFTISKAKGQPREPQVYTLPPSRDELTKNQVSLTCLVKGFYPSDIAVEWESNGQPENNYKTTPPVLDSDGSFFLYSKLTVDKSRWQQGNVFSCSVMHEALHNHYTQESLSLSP
light: B1 light
notes: homodimerized; mutation in both H chains; also called Ho Ab K334_04F
B18: GpH7-B3 variant H268_18N/GpL16-k0 (antibody, human IgG1, kappa)
heavy: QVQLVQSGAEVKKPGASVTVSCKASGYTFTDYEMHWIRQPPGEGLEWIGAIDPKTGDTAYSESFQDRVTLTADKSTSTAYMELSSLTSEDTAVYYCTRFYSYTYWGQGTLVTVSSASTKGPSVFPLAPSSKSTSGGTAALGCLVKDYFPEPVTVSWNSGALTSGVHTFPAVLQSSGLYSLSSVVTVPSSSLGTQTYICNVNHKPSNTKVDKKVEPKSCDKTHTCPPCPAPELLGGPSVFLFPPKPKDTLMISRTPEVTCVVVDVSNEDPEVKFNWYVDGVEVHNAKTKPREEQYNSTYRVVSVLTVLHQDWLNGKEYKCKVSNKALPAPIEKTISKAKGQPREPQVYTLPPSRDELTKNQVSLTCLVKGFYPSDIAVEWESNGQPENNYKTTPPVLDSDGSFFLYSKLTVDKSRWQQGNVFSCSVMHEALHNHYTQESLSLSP
light: B1 light
notes: homodimerized; mutation in both H chains; also called Ho Ab H268_18N
B19: GpH7-B3 variant K326_16H/GpL16-k0 (antibody, human IgG1, kappa)
heavy: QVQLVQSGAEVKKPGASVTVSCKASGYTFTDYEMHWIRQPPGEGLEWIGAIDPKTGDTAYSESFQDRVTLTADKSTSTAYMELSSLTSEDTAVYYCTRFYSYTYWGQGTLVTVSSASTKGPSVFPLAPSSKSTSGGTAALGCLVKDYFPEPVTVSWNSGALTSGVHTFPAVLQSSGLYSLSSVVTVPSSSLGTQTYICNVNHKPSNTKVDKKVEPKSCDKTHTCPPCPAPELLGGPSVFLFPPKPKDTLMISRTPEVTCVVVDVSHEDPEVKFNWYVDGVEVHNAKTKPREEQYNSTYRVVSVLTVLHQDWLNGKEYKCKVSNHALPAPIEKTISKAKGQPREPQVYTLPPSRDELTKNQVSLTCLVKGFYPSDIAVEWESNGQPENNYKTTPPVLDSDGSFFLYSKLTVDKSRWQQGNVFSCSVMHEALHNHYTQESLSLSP
light: B1 light
notes: homodimerized; mutation in both H chains; also called Ho Ab K326_16H
B20: GpH7-B3 variant K334_10E/GpL16-k0 (antibody, human IgG1, kappa)
heavy: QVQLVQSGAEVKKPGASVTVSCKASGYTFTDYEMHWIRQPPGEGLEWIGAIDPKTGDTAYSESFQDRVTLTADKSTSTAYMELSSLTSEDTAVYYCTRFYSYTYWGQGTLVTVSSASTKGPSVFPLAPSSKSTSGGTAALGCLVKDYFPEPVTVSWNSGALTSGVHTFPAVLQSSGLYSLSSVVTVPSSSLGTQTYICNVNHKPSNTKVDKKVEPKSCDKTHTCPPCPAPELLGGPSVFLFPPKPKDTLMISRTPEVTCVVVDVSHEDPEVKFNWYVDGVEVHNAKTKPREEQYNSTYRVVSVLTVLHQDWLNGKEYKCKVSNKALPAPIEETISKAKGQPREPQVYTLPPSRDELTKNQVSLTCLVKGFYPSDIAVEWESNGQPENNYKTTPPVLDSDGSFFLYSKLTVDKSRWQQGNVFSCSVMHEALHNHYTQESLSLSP
light: B1 light
notes: homodimerized; mutation in both H chains; also called Ho Ab K334_10E
B21: GpH7-B3 variant S239_10E/GpL16-k0 (antibody, human IgG1, kappa)
heavy: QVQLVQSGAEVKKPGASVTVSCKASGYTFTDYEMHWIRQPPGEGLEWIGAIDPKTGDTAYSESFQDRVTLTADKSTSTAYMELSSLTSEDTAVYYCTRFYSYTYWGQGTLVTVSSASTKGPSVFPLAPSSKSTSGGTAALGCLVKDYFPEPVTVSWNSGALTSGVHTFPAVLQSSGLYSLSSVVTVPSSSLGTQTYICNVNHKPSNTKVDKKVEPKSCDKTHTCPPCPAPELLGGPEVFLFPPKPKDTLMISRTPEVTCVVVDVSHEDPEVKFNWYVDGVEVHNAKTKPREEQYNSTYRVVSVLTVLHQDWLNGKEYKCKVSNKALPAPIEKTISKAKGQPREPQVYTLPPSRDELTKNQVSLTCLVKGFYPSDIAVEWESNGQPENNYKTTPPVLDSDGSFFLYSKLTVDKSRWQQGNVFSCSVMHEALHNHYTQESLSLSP
light: B1 light
notes: homodimerized; mutation in both H chains; also called Ho Ab S239_10E
B22: GpH7-B3 variant I332_15Y/GpL16-k0 (antibody, human IgG1, kappa)
heavy: not shown
light: B1 light
notes: homodimerized; mutation in both H chains; also called Ho Ab I332_15Y
B23: GpH7-B3 variant L328_13S/GpL16-k0 (antibody, human IgG1, kappa)
heavy: not shown
light: B1 light
notes: homodimerized; mutation in both H chains; also called Ho Ab L328_13S
B24: GpH7-B3 variant K334_13S/GpL16-k0 (antibody, human IgG1, kappa)
heavy: not shown
light: B1 light
notes: homodimerized; mutation in both H chains; also called Ho Ab K334_13S
B25: GpH7-B3 variant A330_01G/GpL16-k0 (antibody, human IgG1, kappa)
heavy: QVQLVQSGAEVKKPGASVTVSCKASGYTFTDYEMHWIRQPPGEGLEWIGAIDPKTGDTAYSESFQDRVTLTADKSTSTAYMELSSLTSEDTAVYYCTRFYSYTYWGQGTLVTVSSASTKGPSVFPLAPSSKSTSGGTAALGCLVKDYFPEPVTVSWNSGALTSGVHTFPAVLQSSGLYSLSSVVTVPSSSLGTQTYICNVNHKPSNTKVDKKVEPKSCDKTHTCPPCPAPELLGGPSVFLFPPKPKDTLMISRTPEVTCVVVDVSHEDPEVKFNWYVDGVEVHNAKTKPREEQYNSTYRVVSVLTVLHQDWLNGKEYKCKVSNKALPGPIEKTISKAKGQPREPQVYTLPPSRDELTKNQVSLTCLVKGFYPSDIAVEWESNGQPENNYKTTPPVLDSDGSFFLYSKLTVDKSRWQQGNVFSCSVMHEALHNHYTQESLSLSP
light: B1 light
notes: homodimerized; mutation in both H chains; also called Ho Ab A330_01G
B26: GpH7-B3 variant K334_08L/GpL16-k0 (antibody, human IgG1, kappa)
heavy: not shown
light: B1 light
notes: homodimerized; mutation in both H chains; also called Ho Ab K334_08L
B27: GpH7-B3 variant H268_10E/GpL16-k0 (antibody, human IgG1, kappa)
heavy: not shown
light: B1 light
notes: homodimerized; mutation in both H chains; also called Ho Ab H268_10E
B28: GpH7-B3 variant K326_08L/GpL16-k0 (antibody, human IgG1, kappa)
heavy: not shown
light: B1 light
notes: homodimerized; mutation in both H chains; also called Ho Ab K326_08L

molecular target: T1, FcγRIIb extracellular domain with C-terminal His tag (human, UniProt P31994 43-217); test: SPR (Biacore), captured antibody, FcγRIIb analyte; binding relative to GpH7-B3/GpL16-k0 = 100
T1 construct: extracellular domain; expressed in FreeStyle293 cells; analyte in the Biacore assay; also called FcgRIIb; 2b; not shown: His tag at the C terminus
T1 sequence (looked up): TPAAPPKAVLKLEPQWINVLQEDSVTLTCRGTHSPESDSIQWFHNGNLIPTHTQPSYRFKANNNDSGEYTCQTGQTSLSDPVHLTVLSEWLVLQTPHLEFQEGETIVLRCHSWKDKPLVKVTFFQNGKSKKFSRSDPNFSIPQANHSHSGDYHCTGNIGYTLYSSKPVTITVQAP

Row | Binder | Ho/Con_2b
1 | B1 | 170 % of control
2 | B2 | 184 % of control
3 | B3 | 237 % of control
4 | B4 | 106 % of control
5 | B5 | 114 % of control
6 | B6 | 114 % of control
7 | B7 | 186 % of control
8 | B8 | 108 % of control
9 | B9 | 187 % of control
10 | B10 | 112 % of control
11 | B11 | 207 % of control
12 | B12 | 240 % of control
13 | B13 | 209 % of control
14 | B14 | 181 % of control
15 | B15 | 137 % of control
16 | B16 | 166 % of control
17 | B17 | 115 % of control
18 | B18 | 179 % of control
19 | B19 | 131 % of control
20 | B20 | 129 % of control
21 | B21 | 175 % of control
22 | B22 | 109 % of control
23 | B23 | 147 % of control
24 | B24 | 117 % of control
25 | B25 | 102 % of control
26 | B26 | 114 % of control
27 | B27 | 275 % of control
28 | B28 | 168 % of control
